Experiment: soluble fraction after stress (log2 fold change); higher = more stays soluble; pooled small domains, quantitative proteomics
Settings: stress: 75 degC
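Note: 20 min heating vs room temperature control held 20 min.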

HMTGLFSPTEQTRHSKTGATLYSVKLAERIERNAFQSLKKRAKEHDGYYSSFTRSFLFDTPEDAEAFRGT
soluble fraction (log2): -0.371

HMTGMEASLSKLLQGEQFADLRKALIDKGIRKLEAFKRLNLWVFMNRNRLYSIGQRQTVYSTLQRALASE
soluble fraction (log2): -0.0934

HMTGREIDQLFSVVNDLKAKGVGMVFISHHLDEIARIADSVSVLRDGGFVAEVPASTPEKKLVTLMVGRDI
soluble fraction (log2): -0.228

HMTGWINVDKNWYYMNNSGSMARGMINVNNVSYYLDENGKMLSNTTVNVNGTDYRIDASGAMSQI
soluble fraction (log2): -0.182

HMTHEIKIKSHSLFASEGTKYQWYLNNIKINDATSQELEITSPGIYKLEMTNFDGDVIEKQIIVGLTNS
soluble fraction (log2): -1.91

HMTHHGHSIKRIRDMLGIKQETLAAELNMTQQAFSKLEQKEQIEDEMLDKIAKILHVSTEALKT
soluble fraction (log2): 0.0102

HMTHPAHLARIGALIRSARQHEGLTQAQLAELLGTSQSAIHRIEQGGQNITLDMLTRISAALDSEIVTIG
soluble fraction (log2): -1.51

HMTHPQVEAYLDDLARMLADIDPGERDDILASVREHLDAEIAAGHGSDAVVNATLLRLGPPEQVAAAARTN
soluble fraction (log2): -0.0131

HMTIAFPSNDVDAVVGYFESRGFDRTASISTATVILQQAKIDGVKVFELIDTLQGMDKVQLSYIVTEILN
soluble fraction (log2): 0.0608

HMTIATLGERIRKLRKERGLTLAELAGDKLSKGMLSLIENNRAKPSMESLEYIAKRLGVEPAELLE
soluble fraction (log2): 0.0696

HMTIENTDTFLETLWEQVQRASVDENGIITSRVLIWDEGTKLDEILSWFDKRHSLGALYLQFG
soluble fraction (log2): -2.66

HMTIFGWQTDETGKWYRNADGTFFEAGWKEIDGAKYYFDENGYVKTGWLELDGKDYYFDEEGRYDSSKVR
soluble fraction (log2): 0.299

HMTIGLLISKARTNSGLTQAELATRAGTSQAAIARYESDRVSPSVSTLERVLRAAGEELVISSS
soluble fraction (log2): -0.209

HMTINPFSTLAVRELEILHYLLNGHRTKEIATNLGLKMNTVSTIKSNIFEKVKADSFTHLLQLAHVHQIS
soluble fraction (log2): -1.07

HMTIQNSILDEIPNIGASRKRAILEAFGSVHRLRKASPEMISAKVEGIGPEMAQAIHDYLVKHPAT
soluble fraction (log2): 0.066

HMTISAQAITPRLEVIKNFVLMEEWDAAQTQLEKLRSFTEIWSLDPLFSAMKKKDGQKISDWITGFIKDNM
soluble fraction (log2): -2.39

HMTISDEAMQAGRDAFIQALVAMGAEKNADAMASIEKALSADPGNKEYLATRDLIKKSMGMKK
soluble fraction (log2): 0.981

HMTISGSDLKAQREALNIPLERIAKETRIRLSILQDLEDEEYSELSSSAQTKGFLRLYADYLSSHKQRLG
soluble fraction (log2): -1.06

HMTITDDETHKVLEEGASRMSEGLTFRDLVDLDRLHLTARGVIQKVLNENRIDADVDTIANMAQKLVARVS
soluble fraction (log2): -0.0881

HMTKAEVLLDLQQRIISEEFLPGSWLVERDLSSEYGLSRTPIREILNKLVILGLISVQKNRGYQVR
soluble fraction (log2): -1.29

HMTKAILTANDVRNGDIVFWTADQRWSTSIDDAAIGYGKDDTDQLADAGKQAEAANTVVGAYLIALR
soluble fraction (log2): -0.102

HMTKASEELYFRLKEELGTGVIVEHKKYGEGVVTQLDDRLVHIMFQDDTLRMMDLKILANAGLLKVK
soluble fraction (log2): -1.57

HMTKDYVVIYEGLAQTEAVEILGKLQEMGVSAKVDHNDSILVLKDEEDQIRMALATEGYPKS
soluble fraction (log2): 0.158

HMTKEEKEKREKYEKLMKKADELVTAKNHKEAVTVLGQAKAYANPQQTKEIEEKIKAQTAELDKG
soluble fraction (log2): 0.548

HMTKGVQMFAEQLKRTRQSRHYSQAEIASKLGVTQQAIAKWETGVSTPSPTSISKLSDILGISTDVLLKGA
soluble fraction (log2): 0.0396

HMTKIAFPQMLNKYRLQKNLTMEQLAEEVGKTKSTISKWEAGTRSPKIYEIEEIAKYFGVEPQTMMF
soluble fraction (log2): -0.107

HMTKINAPMPGNILDVKVNVGDHVEANQLVLMLEAMKMENEIFTPVAGTVVGVHVKKGDSVNSDDLLISI
soluble fraction (log2): -0.512

HMTKKEFLDILTESLAGNVPASEIEENIRYYKDYIENGEESEEKALEQLGDPHLIARTIIDSFIA
soluble fraction (log2): -0.0899

HMTKLLSALQADKFAKKLANDTNFGSNFARMGESAMDFTNRLVEELQRDEGKVANYMPYLTKLGF
soluble fraction (log2): 0.204

HMTKLSPKEKSILHIIGDNAGIKSGQIAKRLDIPSPTVKRILSDLVSQNLIEKFGTGPGTNYSI
soluble fraction (log2): -0.0131

HMTKLTTDERSVYLHIQNKPGVSASSIREALGYKKSKLTSILAQLLEVHKIIDTEGTGKSLKYIL
soluble fraction (log2): 0.0994

HMTKMTPNRQLVLSVLQSSGKPLSAYELLDRLREQGTQWQPPTAYRALDYLVEQGLAHYLQSIQKYV
soluble fraction (log2): -1.73

HMTKNEFLASFQNELQKRHIPDWEDVVSEYEQHFALKQADGFSEEEIAAKLGAPAELAAQFEA
soluble fraction (log2): 0.155

HMTKQIILVHVAGKVKKPDVYPLLQGSRVADAIKAAGGAKKGVELNDINLARVLIDGEQVFVGYVPE
soluble fraction (log2): -2.2

HMTKQRSAIMNLLAERNTPLTAEEIGEAIAPSYPKLALSTVYRNLELFTNAGLLEKSFFQDGITRYSLTK
soluble fraction (log2): -0.976

HMTKRTEPSILQNFDTEIAELIAKNRGISIMDALRIFLASKTHEMLENDEMKLWYFSPLAVFDMWENE
soluble fraction (log2): 0.318

HMTKSIDFDFREDGVYIKADKDVTIVDIVTKIDLRRIQSVDLTKIKQMLEIGSLDNWIKIAEPQMEK
soluble fraction (log2): -2

HMTKSTLQRQKIIADLIESGNISSQNQLKGLLKKNSLLITQATLSRDLSELGAIKKRQKDGLLVYVLPK
soluble fraction (log2): -0.365

HMTKTKADKIDYAIGDSGTEPPTEDKWTDLAHLPLIKAGQFQWTRRTEYYSDGSTAVSYNIAKSE
soluble fraction (log2): 0.096

HMTKYKEIVDQLRTNIYEGVFPALSKLPEQTALAKRFQTSRMTIQKALNQLKQEGLISTKRGHGTYVNSAT
soluble fraction (log2): -0.74

HMTKYVEGQKYVFEFRDGTITIGTYLRTGEGNIYIKDLSGEDIYIPKIMIAQIHLATDDNVKGDEFWF
soluble fraction (log2): -1.26

HMTLDSLEKLSVNDLEKMLVNMPVGYKTIFLLSVIDEYSHKEIGELLGITPETSRSQLFRAIKWIKTNIF
soluble fraction (log2): -0.631

HMTLGARTLAAIQSLPKVQQAVFTMKHFEGLKYREISQITGTSEGALKASYHIALEKIKAFLREK
soluble fraction (log2): -2.18

HMTLGEHILQYRTARGWSQEDLANALEVSRQSVSKWETDASTPELDKIVRLSEIFQVSIDELVTGKA
soluble fraction (log2): -0.316

HMTLGENLQNLRKEAGLSQEQVAQQLFVSRQTVSKWENNLAEPGVENLKALARLYGVTLDRLVGM
soluble fraction (log2): -0.223

HMTLKVQLSEISKMVSLSYIAKKYFNKSQSWLSQRINGNTIHNKPAKFTSEELATLQFALKDIGNILNSTV
soluble fraction (log2): -2.6

HMTLLVPASKEAILGGLAKIDALKVILKPEKDYSKTHAMTIGTKDEVIAKLDSFLSGMDSEKNQVLIQEYM
soluble fraction (log2): 0.456

HMTLSDIGHAVRTRRTELGLSQVQLARLSGLSRQTLVGLENGTLNDLGINRVAQLLAVLGLDAP
soluble fraction (log2): -2.02

HMTLSHAINRLRLNANMSQEQFAGLFHVSQQSVQKWESGDSVPELSKLIAIAKHFGISLDALILGN
soluble fraction (log2): -2.52

HMTLTEQQITDNYKELRKIINDTFSGLRLDKLNHMYDDLEDRMVVAPASSVEHYHNSKVGGYVEHILHVI
soluble fraction (log2): -0.124

HMTLTIEDGYVNAKLKTTVEGLAEDSTIKVDSIEYTNAGKNDILTVFVEDKPYRVEKYKINIAPEDS
soluble fraction (log2): 0.139

HMTLVSALDQKTKDSAYYRGTYLAGKISAGKMTKQEAVADIMKNYDGNTAAMKVAAEKAGVSDLLSQTVL
soluble fraction (log2): 0.0489

HMTMKQVFIETDANVNQKIMLNEKEAHHLFDVLRTSDKETIRVVTNTSQVFLARVQQKPYIYLFDKMTVE
soluble fraction (log2): -2.49

HMTMNYFIIENNQQVGPLTLEQLVARNITSDTLVWKEGMEDWQPAWKVDELHTVLDQIRANAEQ
soluble fraction (log2): -0.00196

HMTMVVIMNADATQADIEGVISAIEEKGLEAKVMEGAHQKIVGVIGDKTKLAATPLDAMHGVETTVAIS
soluble fraction (log2): -0.244

HMTNATVGQIKKLARASILYGNSNLSGNRYTYKANTTVTILQNISSNVDKIRVNVTGRVAYIDNSNYSSST
soluble fraction (log2): -3.59

HMTNEQLSKAKSWVQIAVYAAEKLYGAGNGDQKLVYAEEILRKHGIRLDTATLKAMIDAQIKEMEN
soluble fraction (log2): -1.01

HMTNEWRKILSNLNGKYQIVMELFYVDGFSTKEIARMLHITEVNVRSRMVRGRKQLEQILTVR
soluble fraction (log2): -0.0301

HMTNPPITTEARNLVVEQLKELNALHPEKARELADSYKKEFNVPKVIGHITEARHGEFLALAISKIDES
soluble fraction (log2): -0.241

HMTNPPTPADTLFNTVRGVLQSILKSPMKDTEVASALNVSKAQARSWLQRLSDEGLIEKRKNPTAYVL
soluble fraction (log2): -0.592

HMTNTYEVIKNDIIFGVLPPLKKLKLLELKKKYITSVSTLREILSRLSGDGFVVSKEQKGFYVSAV
soluble fraction (log2): -0.0741

HMTNVNSLIGKKAIVIQDIDNLKSTGQVKIGGEIWSAQSESNDIISKDTEVEIVKIDGVKLIVRLVPV
soluble fraction (log2): -0.153

HMTNYNTEKIIPEEQAGKRLDVVLANIFPEFSRSRLKNWIIDGFILVDGKVLRPRDFVTGGELVSIDVIV
soluble fraction (log2): -0.123

HMTPADEAGNDLDIGQTVKILRRVSEGQYEVSYRGTTWQARALNAQAAVEPSFAVIGGKEGNILLVHL
soluble fraction (log2): -0.202

HMTPDVAEFRERLRQILPGEQIEVRTANDGIVLSGTVSSIARLDAALQLAERYAPSRVSNLMSVG
soluble fraction (log2): 0.00274

HMTPEPVREALTFQEGRVFALAAKNMTNAEIAQSLSLKLKTVENYMSIIYQKLALKNRYELLVYARKSGV
soluble fraction (log2): -0.576

HMTPESSLHSGLGKILHDALTAKIQLTNFEAKFLSDMQSKYDLNGSFSWLSSKQQTTLEKILAKYGR
soluble fraction (log2): -1.98

HMTPFLVRVDISDLNIRTGAGTNYSRTGQYTGKGIFTILEVKSGQGSDAGWGRLKSGAGWISLDYTTR
soluble fraction (log2): -2.84

HMTPIELIEKTIELIENERKVQKLQQKELALKADIPFPTYKDFIYKKRASLENILKLFIALRLF
soluble fraction (log2): -0.384

HMTPKVAVPSFVGWKFEDVERQLGTMGLIRGKVDNHPSEEYSEGRVIWQSVLGEVEKGKVIDFWVSTGPE
soluble fraction (log2): 0.0612

HMTPNATWQDDAQSLLRDLIQHQPVLIQISAAKRLRDQAEQISRITGGDTVTRDHVEAAGHALGMGVT
soluble fraction (log2): -0.0233

HMTPPLSKIRNMTPDQQRSSVIEARKKGYNLLQLEGLAKAQGATPADLLVLRNAWAQSEFDQKR
soluble fraction (log2): 0.067

HMTPQVALNDTETAIYEKMKQEKQMLLGELRAQFDISNKLWDTSLKTLTKNQLLAVSKEDDLLFVKL
soluble fraction (log2): -0.195

HMTPQVTVPDVTGQSFASAKQVLESLGLTVKQQGSTGENDKVIGQNPTSGNADKGATITLTTQDS
soluble fraction (log2): 0.536

HMTPSTVQVHVAGAVKNPGVYVLLENARNIDAITAAGGATSEADLERINLSEFIRDGQRVYVPYKGDPI
soluble fraction (log2): 0.459

HMTPTITNALEEAEKAVSEVQEGKKEIELTPQGAYIRHLQHAIADRYGISSTSTGRDPKRKVIIY
soluble fraction (log2): -0.578

HMTPTNILIVEDEKEIRRFVRTALESEGLRVFESETLQRGLIEAGTRKPDLIILDLGLPDGDGLSYIRDLR
soluble fraction (log2): -0.0383

From the domain aggregation screens of Martell et al. (2025)
